Columns and labels:
Experiment in all cases: holdup assay
Set-up in all cases: key: below the threshold = too weak to quantify, mostly under pKd 3.1 to 4
Conditions in all cases: plain residues with an end cap or a label only (N-terminal biotin on a linker: ado-ado)
APBA2_1, Q99767 = molecular target: T1, APBA2_1, Q99767
T1 sequence (Q99767 563-664, limits assumed, looked up): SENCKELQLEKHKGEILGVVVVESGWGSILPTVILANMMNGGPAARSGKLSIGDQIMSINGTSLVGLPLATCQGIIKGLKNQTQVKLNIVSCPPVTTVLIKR

LNX1_1, Q8TBB1 = molecular target: LNX1_1, Q8TBB1
Chain of LNX1_1, Q8TBB1 (Q8TBB1 261-371): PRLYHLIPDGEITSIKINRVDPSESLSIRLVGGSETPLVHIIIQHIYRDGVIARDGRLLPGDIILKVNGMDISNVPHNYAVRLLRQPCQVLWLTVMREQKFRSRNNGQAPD

FRMPD3, Q5JV73 = molecular target: FRMPD3, Q5JV73
Chain of FRMPD3, Q5JV73 (Q5JV73 12-100): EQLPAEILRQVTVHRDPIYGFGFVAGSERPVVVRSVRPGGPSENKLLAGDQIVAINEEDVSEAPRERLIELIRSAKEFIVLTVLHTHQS

NHERF2_2, Q15599 = molecular target: NHERF2_2, Q15599
Chain of NHERF2_2, Q15599 (Q15599 142-238): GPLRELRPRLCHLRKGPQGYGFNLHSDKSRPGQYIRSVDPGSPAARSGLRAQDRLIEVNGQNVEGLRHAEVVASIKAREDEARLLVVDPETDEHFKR

FRMPD2_3, Q68DX3 = molecular target: FRMPD2_3, Q68DX3
Chain of FRMPD2_3, Q68DX3 (Q68DX3 1073-1166): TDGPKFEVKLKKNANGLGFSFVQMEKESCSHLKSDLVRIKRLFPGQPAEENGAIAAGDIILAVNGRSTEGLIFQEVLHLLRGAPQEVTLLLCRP

LAP2, Q96RT1 = molecular target: LAP2, Q96RT1
Chain of LAP2, Q96RT1 (Q96RT1 other isoform, or with tags, fused parts or gaps): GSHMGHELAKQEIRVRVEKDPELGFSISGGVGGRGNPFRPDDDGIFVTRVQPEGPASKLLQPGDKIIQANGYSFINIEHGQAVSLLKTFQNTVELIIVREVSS

DLG4_1, P78352 = molecular target: DLG4_1, P78352
Chain of DLG4_1, P78352 (P78352 62-152): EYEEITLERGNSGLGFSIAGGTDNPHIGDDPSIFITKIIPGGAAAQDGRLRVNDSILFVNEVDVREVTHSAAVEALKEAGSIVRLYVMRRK

MPDZ_10, O75970 = molecular target: T2, MPDZ_10, O75970
T2 sequence (O75970 1624-1722, limits assumed, looked up): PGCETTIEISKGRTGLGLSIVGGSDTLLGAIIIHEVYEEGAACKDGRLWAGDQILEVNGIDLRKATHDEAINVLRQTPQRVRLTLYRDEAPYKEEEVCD

PARD3_3, Q8TEW0 = molecular target: PARD3_3, Q8TEW0
Chain of PARD3_3, Q8TEW0 (Q8TEW0 582-685): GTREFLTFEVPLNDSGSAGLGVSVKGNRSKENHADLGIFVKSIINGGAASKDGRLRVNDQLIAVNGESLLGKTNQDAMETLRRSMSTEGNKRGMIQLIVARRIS

PDZRN3_1, Q9UPQ7 = molecular target: T3, PDZRN3_1, Q9UPQ7
T3 sequence (Q9UPQ7 244-349, limits assumed, looked up): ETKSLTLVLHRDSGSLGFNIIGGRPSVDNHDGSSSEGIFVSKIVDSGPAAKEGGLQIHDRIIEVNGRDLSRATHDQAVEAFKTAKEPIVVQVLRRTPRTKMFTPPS

HTRA2, O43464 = molecular target: HTRA2, O43464
Chain of HTRA2, O43464 (O43464 355-458): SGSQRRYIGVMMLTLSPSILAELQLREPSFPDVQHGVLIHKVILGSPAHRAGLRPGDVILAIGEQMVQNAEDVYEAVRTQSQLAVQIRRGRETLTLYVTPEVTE

MAGI1_1, Q96QZ7 = molecular target: MAGI1_1, Q96QZ7
Chain of MAGI1_1, Q96QZ7 (Q96QZ7 1-106): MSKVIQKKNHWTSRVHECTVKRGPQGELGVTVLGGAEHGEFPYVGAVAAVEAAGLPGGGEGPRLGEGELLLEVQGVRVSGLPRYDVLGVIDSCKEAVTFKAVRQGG

NHERF3_1, Q5T2W1 = molecular target: T4, NHERF3_1, Q5T2W1
T4 sequence (Q5T2W1 4-100, limits assumed, looked up): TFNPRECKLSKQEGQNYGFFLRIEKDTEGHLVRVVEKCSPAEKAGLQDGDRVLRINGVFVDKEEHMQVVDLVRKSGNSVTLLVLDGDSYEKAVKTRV

LNX1_2, Q8TBB1 = molecular target: LNX1_2, Q8TBB1
Chain of LNX1_2, Q8TBB1 (Q8TBB1 371-470): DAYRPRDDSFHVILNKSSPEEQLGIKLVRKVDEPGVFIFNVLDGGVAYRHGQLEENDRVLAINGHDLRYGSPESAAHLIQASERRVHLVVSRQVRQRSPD

APBA2_2, Q99767 = molecular target: T5, APBA2_2, Q99767
T5 sequence (Q99767 654-744, limits assumed, looked up): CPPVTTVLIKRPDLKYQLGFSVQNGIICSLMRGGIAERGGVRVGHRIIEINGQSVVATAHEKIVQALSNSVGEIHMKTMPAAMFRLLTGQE

GRIP1_2, Q9Y3R0 = molecular target: T6, GRIP1_2, Q9Y3R0
T6 sequence (Q9Y3R0 145-248, limits assumed, looked up): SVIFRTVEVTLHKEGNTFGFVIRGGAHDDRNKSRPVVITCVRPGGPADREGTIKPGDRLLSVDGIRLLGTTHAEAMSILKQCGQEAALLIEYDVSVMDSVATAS

Inadl_2, Q8NI35 = molecular target: Inadl_2, Q8NI35
Chain of Inadl_2, Q8NI35 (Q8NI35 238-335): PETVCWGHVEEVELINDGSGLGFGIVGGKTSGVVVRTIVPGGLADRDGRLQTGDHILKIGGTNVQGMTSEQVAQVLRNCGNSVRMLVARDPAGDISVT

GRIP2_5, Q9C0E4 = molecular target: GRIP2_5, Q9C0E4
Chain of GRIP2_5, Q9C0E4 (Q9C0E4 544-642): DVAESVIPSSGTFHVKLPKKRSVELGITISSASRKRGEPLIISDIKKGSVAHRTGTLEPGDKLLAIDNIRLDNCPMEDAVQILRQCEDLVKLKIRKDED

PTPN13_1, Q12923 = molecular target: T7, PTPN13_1, Q12923
T7 sequence (Q12923 1088-1188, limits assumed, looked up): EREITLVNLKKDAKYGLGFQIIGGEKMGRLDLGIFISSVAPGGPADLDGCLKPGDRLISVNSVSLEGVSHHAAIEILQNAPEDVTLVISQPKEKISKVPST

TIAM2, Q8IVF5 = molecular target: T8, TIAM2, Q8IVF5
T8 sequence (Q8IVF5 885-986, limits assumed, looked up): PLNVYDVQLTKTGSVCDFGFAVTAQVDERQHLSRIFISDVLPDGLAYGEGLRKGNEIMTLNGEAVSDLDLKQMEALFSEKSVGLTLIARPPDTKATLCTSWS

GRIP2_3, Q9C0E4 = molecular target: GRIP2_3, Q9C0E4
Chain of GRIP2_3, Q9C0E4 (Q9C0E4 238-339): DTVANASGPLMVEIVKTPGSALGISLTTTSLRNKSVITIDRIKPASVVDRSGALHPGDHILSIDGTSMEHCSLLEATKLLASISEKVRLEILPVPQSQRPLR

DFNB31_1, Q9P202 = molecular target: T9, DFNB31_1, Q9P202
T9 sequence (Q9P202 135-233, limits assumed, looked up): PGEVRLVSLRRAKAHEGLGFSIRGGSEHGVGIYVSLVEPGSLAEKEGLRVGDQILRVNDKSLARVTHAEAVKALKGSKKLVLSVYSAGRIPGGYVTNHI

SNTG2, Q9NY99 = molecular target: T10, SNTG2, Q9NY99
T10 sequence (Q9NY99 68-166, limits assumed, looked up): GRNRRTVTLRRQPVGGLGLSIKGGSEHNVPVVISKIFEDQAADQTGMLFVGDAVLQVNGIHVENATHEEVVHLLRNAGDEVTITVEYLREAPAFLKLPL

GORASP1, Q9BQQ3 = molecular target: GORASP1, Q9BQQ3
Chain of GORASP1, Q9BQQ3 (Q9BQQ3 1-208): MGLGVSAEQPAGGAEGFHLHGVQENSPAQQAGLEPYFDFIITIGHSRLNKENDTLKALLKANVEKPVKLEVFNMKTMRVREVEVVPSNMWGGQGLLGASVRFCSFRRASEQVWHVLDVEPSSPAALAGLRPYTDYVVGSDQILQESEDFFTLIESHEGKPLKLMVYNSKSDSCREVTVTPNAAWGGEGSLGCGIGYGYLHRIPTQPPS

PARD3B_1, Q8TEW8 = molecular target: T11, PARD3B_1, Q8TEW8
T11 sequence (Q8TEW8 196-299, limits assumed, looked up): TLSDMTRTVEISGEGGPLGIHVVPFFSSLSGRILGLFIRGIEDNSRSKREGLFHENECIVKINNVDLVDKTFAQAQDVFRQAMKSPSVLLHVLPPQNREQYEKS

GRIP2_4, Q9C0E4 = molecular target: GRIP2_4, Q9C0E4
Chain of GRIP2_4, Q9C0E4 (Q9C0E4 446-548): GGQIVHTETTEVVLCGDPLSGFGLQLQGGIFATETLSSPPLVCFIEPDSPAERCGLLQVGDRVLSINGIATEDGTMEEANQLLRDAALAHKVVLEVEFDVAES

GRIP2_6, Q9C0E4 = molecular target: GRIP2_6, Q9C0E4
Chain of GRIP2_6, Q9C0E4 (Q9C0E4 648-740): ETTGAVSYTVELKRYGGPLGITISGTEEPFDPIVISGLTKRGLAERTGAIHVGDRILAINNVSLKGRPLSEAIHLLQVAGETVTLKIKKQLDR

NSTHNLKDYV [CLDN20, P56880]
pKd (APBA2_1, Q99767): below the threshold | pKd (LNX1_1, Q8TBB1): below the threshold | pKd (FRMPD3, Q5JV73): below the threshold | pKd (NHERF2_2, Q15599): below the threshold | pKd (FRMPD2_3, Q68DX3): below the threshold | pKd (LAP2, Q96RT1): below the threshold | pKd (DLG4_1, P78352): below the threshold | pKd (MPDZ_10, O75970): below the threshold | pKd (PARD3_3, Q8TEW0): below the threshold | pKd (PDZRN3_1, Q9UPQ7): 3.83 | pKd (HTRA2, O43464): below the threshold | pKd (MAGI1_1, Q96QZ7): below the threshold | pKd (NHERF3_1, Q5T2W1): 4.19 | pKd (LNX1_2, Q8TBB1): below the threshold | pKd (APBA2_2, Q99767): below the threshold | pKd (GRIP1_2, Q9Y3R0): below the threshold | pKd (Inadl_2, Q8NI35): below the threshold | pKd (GRIP2_5, Q9C0E4): below the threshold | pKd (PTPN13_1, Q12923): below the threshold | pKd (TIAM2, Q8IVF5): below the threshold | pKd (GRIP2_3, Q9C0E4): below the threshold | pKd (DFNB31_1, Q9P202): below the threshold | pKd (SNTG2, Q9NY99): below the threshold | pKd (GORASP1, Q9BQQ3): below the threshold | pKd (PARD3B_1, Q8TEW8): below the threshold | pKd (GRIP2_4, Q9C0E4): below the threshold | pKd (GRIP2_6, Q9C0E4): below the threshold

DLLGGGSDSI [TNRC6B, Q9UPQ9]
pKd (APBA2_1, Q99767): below the threshold | pKd (LNX1_1, Q8TBB1): 3.76 | pKd (FRMPD3, Q5JV73): below the threshold | pKd (NHERF2_2, Q15599): below the threshold | pKd (FRMPD2_3, Q68DX3): 3.51 | pKd (LAP2, Q96RT1): below the threshold | pKd (DLG4_1, P78352): below the threshold | pKd (MPDZ_10, O75970): below the threshold | pKd (PARD3_3, Q8TEW0): below the threshold | pKd (PDZRN3_1, Q9UPQ7): below the threshold | pKd (HTRA2, O43464): below the threshold | pKd (MAGI1_1, Q96QZ7): below the threshold | pKd (NHERF3_1, Q5T2W1): below the threshold | pKd (LNX1_2, Q8TBB1): below the threshold | pKd (APBA2_2, Q99767): below the threshold | pKd (GRIP1_2, Q9Y3R0): below the threshold | pKd (Inadl_2, Q8NI35): below the threshold | pKd (GRIP2_5, Q9C0E4): below the threshold | pKd (PTPN13_1, Q12923): below the threshold | pKd (TIAM2, Q8IVF5): 3.97 | pKd (GRIP2_3, Q9C0E4): below the threshold | pKd (DFNB31_1, Q9P202): below the threshold | pKd (SNTG2, Q9NY99): below the threshold | pKd (GORASP1, Q9BQQ3): below the threshold | pKd (PARD3B_1, Q8TEW8): below the threshold | pKd (GRIP2_4, Q9C0E4): below the threshold | pKd (GRIP2_6, Q9C0E4): below the threshold

From publication PMC9482650, “Quantitative fragmentomics allow affinity mapping of interactomes” (Nature Communications, 2022)
